Consider two molecules from patent publication US20050208048A1.

This experiment concerns the target human HLA-DR on cells (DRβ1 allele not stated) (human). Put plainly: cell-based or functional assay.

B1: HLA-DR-specific monoclonal antibody L243 (antibody, from another filing, V domains shown)
VH: QIQLVQSGPELKKPGETVKISCKASGFTFTNYGMNWVKQAPGKGLKWMGWINTYTREPTYADDFKGRFAFSLETSASTAYLQINNLKNEDTAKYFCARDITAVVPTGFDYWGQGTTLTVSS
VL: DIQMTQSPASLSVSVGETVTITCRASENIYSNLAWYRQKQGKSPQLLVFAASNLADGVPSRFSGSGSGTQYSLKINSLQSEDFGDYYCQHFWTTPWAFGGGTNLEIKR
In the case of B1, the suppression of SEB-triggered T cell proliferation ([3H]thymidine) was determined as 70%.

B2: murine/human chimeric DN1924 HLA-DR-specific monoclonal antibody (antibody, human IgG2, kappa)
heavy: EVKLLESGGGLVQPGGSLKLSCAASGFDFSRYWMSWVRQAPGKGLEWIGEINPDSSTINYTPSLKDKFIISRDNAKNTLYLQMSKVRSEDTALYYCARQPYYYGSSYWYFDVWGAGTTVTVSSAASTKGPSVFPLAPCSRSTSESTAALGCLVKDYFPEPVTVSWNSGALTSGVHTFPAVLQSSGLYSLSSVVTVTSSNFGTQTYTCNVDHKPSNTKVDKTVERKCCVECPPCPAPPAAAPSVFLFPPKPKDTLMISRTPEVTCVVVDVSHEDPEVQFNWYVDGMEVHNAKTKPREEQFNSTFRVVSVLTVVHQDWLNGKEYKCKVSNKGLPAPIEKTISKTKGQPREPQVYTLPPSREEMTKNQVSLTCLVKGFYPSDIAVEWESNGQPENNYKTTPPMLDSDGSFFLYSKLTVDKSRWQQGNVFSCSVMHEALHNHYTQKSLSLSPGK
light: ETTVTQSPASLSMAIGEKVTIRCITSTDIDDDMNWYQQKPGEPPKLLISEGNTLRPGVPSRFSSSGYGTDFVFTIENMLSEDVADYYLQSDNLPYTFGGGTKLEIKTVAAPSVFIFPPSDEQLKSGTASVVCLLNNFYPREAKVQWKVDNALQSGNSQESVTEQDSKDSTYSLSSTLTLSKADYEKHKVYACEVTHQGLSSPVTKSFNRGEC
Molecule B2 gave a % Annexin V Propidium Iodide Positive, antibody at 5 µg/ml, with Z-VAD-fmk of 52.7% and a % Annexin V Propidium Iodide Positive, antibody at 5 µg/ml, without Z-VAD-fmk of 57.4%.
